Assay results from patent US6630572.

Tests used:
[1] = biological target: high-affinity cell surface thrombin receptor on mouse embryo (ME) cells (mouse) (UniProt P30558); assay: cell-based or functional assay
[2] = biological target: high-affinity cell surface thrombin receptor on mouse embryo (ME) cells (mouse) (UniProt P30558); assay: competition with [^125I]-alpha-thrombin (1 nM) for specific binding to quiescent ME cells, 23 C
[3] = biological target: high-affinity cell surface thrombin receptor on mouse embryo (ME) cells (mouse) (UniProt P30558); assay: competition with [^125I]-alpha-thrombin on ME cells
[4] = biological target: high-affinity cell surface thrombin receptor on mouse embryo (ME) cells (mouse) (UniProt P30558); assay: competition with [^125I]-alpha-thrombin (1 nM) on quiescent ME cells
[5] = biological target: high-affinity cell surface thrombin receptor on mouse embryo (ME) cells (mouse) (UniProt P30558); assay: competition with [^125I]-alpha-thrombin on ME cells; reference p508-530
[6] = biological target: high-affinity cell surface thrombin receptor on mouse embryo (ME) cells (mouse) (UniProt P30558); assay: competition with [^125I]-alpha-thrombin (1 nM) on quiescent ME cells; at 2.7 uM peptide

RGDA [synthetic peptide p517-520 (residues 517 to 520 of human prothrombin)]
inhibition of alpha-thrombin stimulated DNA synthesis in ME cells by 625 nM p517-520, at 0.8 nM alpha-thrombin [1]: 75%
inhibition of alpha-thrombin stimulated DNA synthesis in ME cells by 625 nM p517-520, at 13.0 nM alpha-thrombin [1]: 35%
molar excess of p517-520 over alpha-thrombin required for inhibition of stimulation [1]: 500 to 1000 fold
Concentration Required for 30% Inhibition [2]: 300 nM
percent of [^125I]-alpha-thrombin binding competed [3]: 30 to 50%
concentration at Maximal % Inhibition [4]: 2.7 µM
fold higher concentration for 30% inhibition than p508-530 [5]: 50 fold
Maximal % Inhibition [6]: 50%
